Results published in patent US20260266825A1.

Molecular target: PRO-C17 monoclonal antibody
Test: competitive ELISA; standard peptide competes with plate-bound biotinylated … for the HRP-labelled mAb

- IC50: 2.1 ng/mL
- Mean IC25: 0.8 ng/mL
- Mean IC75: 5.5 ng/mL
Binder: QGMAPAAGADLDKIGLHSDSQEELWMFVRK [30 amino acid standard peptide (…)]
